{
  "source": "paper PMC7464562",
  "target": "SARS-CoV-2 S2 fragment (fusion fragment; postfusion S2 trimer, peak 2) (SARS-CoV-2)",
  "assay": "cryo-EM structure",
  "data": [
    {"substance": "SARS-CoV-2 S2 fragment (fusion fragment; postfusion S2 trimer, peak 2) (domain or fragment)", "values": [
      {"measurement": "stoichiometry N", "result": 3}
    ]}
  ]
}
